Laboratory results published in patent publication US20100041873A1.

Target: Human IL-21 receptor on Baf3/KZ134/huIL-21R cells (human) (UniProt Q9HBE5)
Test: cell-based or functional assay

Human IL-21 receptor on Baf3/KZ134/huIL-21R cells (human), sequence (Q9HBE5 20-538): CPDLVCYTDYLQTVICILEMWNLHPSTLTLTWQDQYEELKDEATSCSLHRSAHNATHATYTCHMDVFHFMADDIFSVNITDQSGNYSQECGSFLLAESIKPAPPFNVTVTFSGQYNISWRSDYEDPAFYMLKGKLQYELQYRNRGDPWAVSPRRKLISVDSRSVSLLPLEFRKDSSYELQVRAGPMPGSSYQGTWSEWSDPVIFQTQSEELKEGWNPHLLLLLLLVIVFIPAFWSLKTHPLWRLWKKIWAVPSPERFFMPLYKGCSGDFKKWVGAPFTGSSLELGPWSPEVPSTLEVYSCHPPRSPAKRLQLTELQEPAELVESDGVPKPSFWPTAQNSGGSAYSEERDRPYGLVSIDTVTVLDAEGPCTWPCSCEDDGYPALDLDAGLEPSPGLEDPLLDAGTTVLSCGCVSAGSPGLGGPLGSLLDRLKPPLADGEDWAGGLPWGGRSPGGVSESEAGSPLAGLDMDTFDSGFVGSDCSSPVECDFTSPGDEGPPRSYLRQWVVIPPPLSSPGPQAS

- EC90, 24 hr STAT-Luciferase assay in Baf3/KZ134/huIL-21R cells: 1.08 nM
Substance: Recombinant rat IL-21 (from UniProt A3QPB9 18-146) (ligand)
